Like-named read-outs stand apart in the source and are kept apart here.
What was measured:
[1] = molecular target: PCNA K164C, labeled with Alexa Fluor 546 (yeast) (UniProt P15873); assay: cross-linking; limiting PCNA: 50 nM AF546-PCNA K164C loaded on nicked pUC19 (15 nM) by full-length RFC (15 nM), CAF-1 titrated 0-1 μM, 100-110 mM NaCl; 0.2% glutaraldehyde; nuclease digestion; SDS-PAGE, PCNA fluorescence, band intensities; affinities estimated
[2] = molecular target: Histones H3–H4 (H3 C110A-H4 E63C), Alexa488-labeled (Xenopus laevis); assay: fluorescence polarisation; 10 nM Alexa488-labeled H3–H4 with increasing CAF-1, Polϵ, Polδ or RPA; 25 mM TRIS pH 7.5, 300 mM NaCl, 5% glycerol, 1 mM EDTA, 0.01% IGEPAL, 0.01% CHAPS, 1 mM DTT; one site binding curve
[3] = molecular target: PCNA (Saccharomyces cerevisiae) (UniProt P15873); settings: cited from earlier work
[4] = molecular target: Proliferating Cell Nuclear Antigen (PCNA), wild type (yeast) (UniProt P15873)
[5] = molecular target: PCNA (Saccharomyces cerevisiae) (UniProt P15873); settings: cited from earlier work; remark: listed apart in the source

CAF-1_ΔAD mutant (acidic domain deleted) (from UniProt Q12495 1-606; Q04199 1-468; P13712 1-422) (complex)
Kd [1]: < 50 nM

Chromatin Assembly Factor-1 (CAF-1), wild type (from UniProt Q12495 1-606; Q04199 1-468; P13712 1-422) (complex)
Kd [2]: 1.1 nM

DNA polymerase delta (from UniProt P15436)
Kd [3]: 13.7 nM

DNA polymerase epsilon (Polϵ) (complex)
Kd [2]: 28 nM
maximum leading-strand replication rate in pulse-chase with the yeast replisome (+RFC/PCNA, Polδ omitted) with 180 nM CAF-1 added; ∼1.09 kb/min without CAF-1 [4]: 0.85 kb/min

DNA polymerase epsilon (from UniProt P21951)
Kd [5]: 326 nM
